Assay results as given in PMC10080691, “Enzyme-Responsive Double-Locked Photodynamic Molecular Beacon for Targeted Photodynamic Anticancer Therapy” (Journal of the American Chemical Society, 2023).

Key:
Assay in all cases: Dark and photocytotoxicity (MTT)
Assay type in all cases: cell-based, human
A549 cells = conditions: without light irradiation, up to 4 μM, all conditions (with or without inhibitors)
Procedure: (§1) The dark- and photocytotoxicity of 1 was also investigated against all four cell lines under the different conditions as described, using 14 as a negative control. […] Without light irradiation, both 1 and 14 were noncytotoxic up to 4 μM for all conditions. Upon light irradiation (λ > 610 nm, 23 mW cm^–2, 28 J cm^–2), both conjugates however could induce a different extent of cytotoxicity. […] The results could be attributed to the intrinsic difference in the MMP-2 levels in these cells. […] The photocytotoxicity was further reduced under the dual inhibition condition, for which the IC50 values (>4 μM) also could not be determined. […] The overall results generally followed the trend of intracellular ROS generation as reported above. […]
(§2) Approximately 2 × 10^4 cells per well (100 µL) in the corresponding medium were inoculated in 96-well plates and incubated overnight at 37 °C in a humidified 5% CO 2 atmosphere. A stock solution of 1 or 14 (1 mM) was prepared as described above, which was diluted with a serum-free medium to various concentrations. The cells, after being rinsed with PBS twice, were treated with or without SB -3CT (10 μM) and/or CA -074 Me (25 μM) in the medi um (100 μL) for 2 h. The cells were further incuba ted with 100 μL of different concentrations of 1 or 14 for 1 h at 37 °C under 5% CO2. After being rinsed with PBS twice, the cells were incubated in the culture medium (100 μL) for 6 h. The cells were then rinsed with PBS and re -fed with 100 μL of a serum-containing medium before being irradiated (λ > 610 nm, 23 mW cm –2, 28 J cm– 2) at ambient temperature. Cell viability was determined by means of a colorimetric MTT assay.R7 After irradiation, the cells were incubated at 37 °C under 5% CO 2 overnight. After incubation, the medium was removed and the cell s were rinsed with PBS twice. A MTT (S igma) solution in PBS (3 mg mL -1, 50 μL) was added to each well followed by incubation for 4 h under the same environment. DMSO (100 μL) was then added to each well. Solutions in all the wells were mixed until homogenous. The absorbance at 490 nm of each w ell on the plate was […]
(§3) taken by a microplate reader (Tecan Spark 10M) at ambient temperature. The average […]
(§4) of the other wells. The cell viability was then determined by the equation: […]
(§5) where Ai is the absorbance of the ith datum (i = 1, 2, …, n), Acontrol is the average absorbance of the control wells in which the compound was absent, and n (= 4) is the number of data points. […]

HEK-293 cells = conditions: for dark cytotoxicity: without light irradiation, up to 4 μM, all conditions
Procedure: as §1, §2, §3, §4, §5

HeLa cells = conditions: without light irradiation, up to 4 μM, all conditions
Procedure: as §1, §2, §3, §4, §5

U-87 MG cells = conditions: without light irradiation, up to 4 μM, all conditions
Procedure: as §1, §2, §3, §4, §5

Compound	dark cytotoxicity (A549 cells)	IC50 (HEK-293 cells; no inhibitor, 1 h + 6 h, light λ > 610 nm, 23 mW cm-2, 28 J cm-2) [µM]	dark cytotoxicity (HEK-293 cells)	dark cytotoxicity (HeLa cells)	dark cytotoxicity (U-87 MG cells)
CCN(CC)c1ccc2nc3ccc(/N=N/c4ccc(N(C)CCCNC(=O)OC[C@@H]5[C@@H]6CCc7nnn(CC(=O)NCCCC[C@@H]8NC(=O)CNC(=O)[C@H](CCCCN)NC(=O)[C@H](CCCNC(=N)N)NC(=O)[C@H](C(C)C)NC(=O)CNC(=O)[C@H](CC(C)C)NC(=O)[C@@H]9CCCN9C(=O)[C@H](CCCCN)NC(=O)[C@@H](N)CSCc9cc(COc%10ccc(C%11=C%12C(C)=C(I)C(/C=C/c%13ccc(OCCOCCOCCOC)cc%13)=[N+]%12[B-](F)(F)n%12c(/C=C/c%13ccc(OCCOCCOCCOC)cc%13)c(I)c(C)c%12%11)cc%10)cc(c9)CSC[C@@H](C(N)=O)NC(=O)[C@H](CCCCN)NC(=O)[C@H](CCCCN)NC(=O)CNC(=O)[C@H](CC(C)C)NC(=O)[C@H](Cc9ccccc9)NC(=O)CNC(=O)[C@H](CCCCN)NC(=O)CNC8=O)c7CC[C@@H]65)cc4)cc3[n+](-c3ccccc3)c2c1 [compound 1]	noncytotoxic	> 4	noncytotoxic	noncytotoxic	noncytotoxic
CCN(CC)c1ccc2nc3ccc(/N=N/c4ccc(N(C)CCCNC(=O)OC[C@@H]5[C@@H]6CCc7nnn(CC(=O)NCCCC[C@@H]8NC(=O)CNC(=O)[C@H](CCCCN)NC(=O)CNC(=O)CNC(=O)CNC(=O)CNC(=O)CNC(=O)[C@H](CCCCN)NC(=O)[C@@H](N)CSCc9cc(COc%10ccc(C%11=C%12C(C)=C(I)C(/C=C/c%13ccc(OCCOCCOCCOC)cc%13)=[N+]%12[B-](F)(F)n%12c(/C=C/c%13ccc(OCCOCCOCCOC)cc%13)c(I)c(C)c%12%11)cc%10)cc(c9)CSC[C@@H](C(N)=O)NC(=O)[C@H](CCCCN)NC(=O)[C@H](CCCCN)NC(=O)CNC(=O)CNC(=O)CNC(=O)CNC(=O)[C@H](CCCCN)NC(=O)CNC8=O)c7CC[C@@H]65)cc4)cc3[n+](-c3ccccc3)c2c1 [compound 14]	noncytotoxic	–	noncytotoxic	noncytotoxic	noncytotoxic
